The values that follow come from article PMC3886910 (PLoS Neglected Tropical Diseases, 2014).

For one assay, the target named is T1, SjCP3842 (Schistosoma japonicum, UniProt Q6PYV4).
T1 construct: gene CP3842
Put plainly: UV-visible differential spectral titration (Soret […] nm); also hemin-agarose pulldown and heme peroxidase binding assay.

Assay [1] concerns the target SjCP1084, recombinant (Schistosoma japonicum). Kind of assay: SDS-PAGE and western blot (oligomer bands). (In general: In western blotting, separated proteins are transferred to a membrane and probed.)
In assay [2] the target is SjCP1531, recombinant (Schistosoma japonicum). Kind of assay: SDS-PAGE and western blot (oligomer bands).
For assay [3], the target named is SjCP3842, recombinant (Schistosoma japonicum). Put plainly: SEC. For orientation: Size exclusion chromatography separates by hydrodynamic size, large species first.
Assay [4] shares this target. Put plainly: SDS-PAGE and western blot (oligomer bands).
Assay [5] has as its target native SjCP1084 (Schistosoma japonicum (endogenous in egg and adult worm extracts)). Kind of assay: SDS-PAGE and immunoblot (oligomer bands).
For assay [6], the target named is native SjCP1531 (Schistosoma japonicum (endogenous in egg and adult worm extracts)). Put plainly: SDS-PAGE and immunoblot (oligomer bands).
Assay [7] addresses native SjCP3842 (Schistosoma japonicum (endogenous in egg and adult worm extracts)). Kind of assay: SDS-PAGE and immunoblot (oligomer bands).
For assay [8] the target is unchanged. Kind of assay: SDS-PAGE and immunoblot (oligomer bands). This is another data set of the same source.

As usually defined, the Kd is a measure of binding affinity in units of concentration. One may read the stoichiometry N as a count of units in the complex or per binding partner.

Read-outs that look alike come from different tables or passages of the source.

As to `C=CC1=C(C)C2=Cc3c(C=C)c(C)c4[n]3[Fe][n]3c(c(C)c(CCC(=O)O)c3=CC3=NC(=C4)C(C)=C3CCC(=O)O)=CC1=N2` [heme], binding at SjCP3842 was characterised by a dissociation constant (Kd) of 1610 nM.

SjCP1084, recombinant (natural protein): the stoichiometry N in assay [1] was found to be 4.

Consider SjCP1531, recombinant (natural protein), for which, in assay [2], the stoichiometry N amounted to 4.

SjCP3842, recombinant (natural protein): the stoichiometry N in assay [3] and in assay [4] was 4 each time.

In assay [5], native SjCP1084 (natural protein) displayed a stoichiometry N of 4.

In assay [6], native SjCP1531 (natural protein) gave a stoichiometry N of 4.

native SjCP3842 (natural protein): the results for the stoichiometry N in assay [7] and in [8] were 4 and 2, respectively.
